Test results: the DeepSol protein solubility set

Assay: soluble on expression in E. coli; label from the status in PepcDB or PDB records

Sequence | soluble on expression in E. coli
QGHMAWSAQQYLKFEDERTRPARDLLAQVPLERVLNGYDLGCGPGNSTELLTDRYGVNVITGIDSDDDMLEKAADRLPNTNFGKADLATWKPAQKADLLYANAVFQWVPDHLAVLSQLMDQLESGGVLAVQMPDNLQEPTHIAMHETADGGPWKDAFSGGGLRRKPLPPPSDYFNALSPKSSRVDVWHTVYNHPMKDADSIVEWVKGTGLRPYLAAAGEENREAFLADYTRRIAAAYPPMADGRLLLRFPRLFVVAVKK | soluble
MFQTFEGDLKWHHHNITYWIQNYSEDLPRAVIDDAFARAFALWSAVTPLTFTRVYSRDADIVIQFGVAEHGDGYPFDGKDGLLAHAFPPGPGIQGDAHFDDDELWSLGKGQGYSLFLVAAHEFGHALGLDHSSVPEALMYPMYRFTEGPPLHKDDVNGIRHLY | soluble
MKQRILIVGAGFAGMWSALSAVRQLDRQGRDDVEVAVLAPQPELRIRPRFYEPDVQRMAAPLGELFAAVGVRFVQGSAQRIDVAGKRVEYRDAEGTLAQLDYDRLVLAAGSGVWRPASVAGIDAAFDVDQLEDALRLEAHLHALRDLPDSPARNTVVVAGGGFTGIETATEMPARLRAILGEKAALRVIVVDRGAAIGASMGADLSGLIAEASAELGVEWCLGRSVAAVDAEGVTLDDGQRIEAKTVVWTVGVRASTLTGQIPGERDAQGRLHVDRNLKVLGLDDVYATGDVARAATDDLGNHALMTCQHAIALGRSAGNNVAADLLGVEPIPYSQVKYVTCLDLGGWGAVFTEGWDRQVRFVREEGKKIKTEINGVWIYPPAADRAVALAAADPLIPVVALEHHHHHH | soluble
MSLTNTTKIVFLGASSASFGLSMFRDLFASPVLAGSTLTLVGRNPETLGRMTELAKLMNARSGAGLIIEQTTDRRAALDGAGFVINATAIDRNRLWKQDFEVPKKHGIRHTLGENGGPGGLFFTLRTLPLVFDFIRDIEELCPTALFLNYSNPESRIILALGRYTKVRHIGLCHGIFMGRDAVAYIMQMPREEIEVWGAGLNHFQCLTEIRHRDTGEDLYPRFRAAEQSFDPDAWRFTRRLYRAFGYWLTCSDDHLGEYLPYGWEAGEKGYDFDQDERWRGEFLTQLNGVLGGTMPIPQWWTEPSGERGAAVIAAMLHNQKRFIESGIVINRGVIPNLPAELAVEVPVTVDAAGVHPVSLGPLPDPIAKLMLMQASVQQLAVEAAVHASKELALQALLIDPVVNSAVAAEKILDELWEINRPYIRKEGHHHHHH | not soluble
MGSDKIHHHHHHMGFDLDVEKKKENRNIPQANNLKIKVIGVGGAGNNAINRMIEIGIHGVEFVAVNTDLQVLEASNADVKIQIGENITRGLGAGGRPEIGEQAALESEEKIREVLQDTHMVFITAGFGGGTGTGASPVIAKIAKEMGILTVAIVTTPFYFEGPERLKKAIEGLKKLRKHVDTLIKISNNKLMEELPRDVKIKDAFLKADETLHQGVKGISELITKRGYINLDFADIESVMKDAGAAILGIGVGKGEHRAREAAKKAMESKLIEHPVENASSIVFNITAPSNIRMEEVHEAAMIIRQNSSEDADVKFGLIFDDEVPDDEIRVIFIATRFPDEDKILFPEGDIPAIYRYGLEGLL | not soluble
MSAAEGAVVFSEEKEALVLKSWAIMKKDSANLGLRFFLKIFEIAPSARQMFPFLRDSDVPLETNPKLKTHAVSVFVMTCEAAAQLRKAGKITVRETTLKRLGGTHLKYGVADGHFEVTRFALLETIKEALPADMWGPEMRNAWGEAYDQLVAAIKQEMKPAE | soluble
MSLNKAILHDHLDGGLRPSTALELAKNDSYKPLLEIENISSFFDRSSSNSLEDYLEAFIHTTALMNKYENLERIAFEAAEDMHNCGINLYESRYAPLYSVNENLSIKDVLESINSGFKQAENLYGIQSGLILCGMRNDLKNVESVGEIAVKYKDLIIGFDIAGPELNFRPSLFSSTFKKVKNAGVNITIHAGEGDNVESIKDALENGAKRIGHGVRIIEDINLENNKLGETASLIRDKQIPLEICITSNIHTNMYKSYESHPIKDLVDLGFNISLNTDNRLMSNTDIVKEMNICKNIGIKNPENLLEMSASYSFLNEGHHHHHH | not soluble
MFMSTDEVRRAFLSFFESKGHQIVESSSLVPANDPTLLFTNAGMNQFKDCFLGLEKRAYTRATTAQRCVRAGGKHNDLENVGFTARHHTFFEMLGNFSFGDYFKEDAIQYAWEFLTDVLQLPKERLLVTVYETDDEAFDIWNKKVGIPADRIIRIGDKKGGKKFDSDNFWQMGDTGPCGPCTEIFYDHGDHIWGGPPGSPEEDGDRFIEIWNNVFMQFNRHADGTMEPLPKPSVDTGMGIERISAIMQGVHSNYEIDVFQTLIKAAADAIGYQDLTNQSLRVVADHIRSCAFLIVDGVMPSNEGRGYVLRRIIRRAVRHGNKLGAQGAFFHKLVGPLAEVMGTAGVELKKQQALVEKVLRIEEENFGRTLDRGMSILNDALDQLSGQVLDGETVFKLYDTYGFPADLTNDVARERGFSIDEAGFEQAMEEQRQRAREAGQFGTDYNSLIKSATNTEFCGYTASRGQSVVREMFVEGAEVSTLSAGDKAIIVLDNTPFYAESGGQCGDTGVLKTDAGIFHVEDTQKLGNAIAHHGVIAQGVLATGDQVDAIVDEKRRAAISLNHSATHLLHAALRKVLGEHVAQKGSLVRAETLRFDFSHLEAMTAAEIKEVERLVNQEVRRNHSIETNIMNIDEAKAKGAMALFGEKYDDQVRVLSMGDFSTELCGGIHASNTGDIGLFKIISEGGIAAGIRRIEAVTGEGALDYLDAQQAQHDAKVSEMAAKAKLLEKEIQQLKDKLAAKESAGLINQVKQIAGVNVLVAQLNGADNKALRGMVDDLKNQLSSGIIMLGNVAEGKVGLIAGVTNDLTNKVKAGELVNMVALQVGGKGGGRPDMAQAGGTDAHALPSALESVDAWIAERL | not soluble
GPGSMADSNPTKEGTSSAPLHPLKDKWFVFYIPASKGNEYEHETKELGYVSTIEEVYSTINTLPPITLLPNDDNLVFSRNKIEPQFESFPGGMRFSIFCKTKTQCREALTYVVAVVLGEAIGRDACKGECVCDIVRIGHKGSAMYKESVRIEVWAHQSPYNTAMEKYLVSTLSAIPGITVSARPFK | soluble
MAHHHHHHMKKACKLASECLKLCLENSKEGITTDIIDNMAYDFYIKNNAYPAGLNFHSFPKSICASPNEVVCHGIPNLRKLQRGDIITYDCTVFLDGVFGDCAGTVGIGEISERHKKLMDVSKECLYKAISICRDGQLFSEIGRIITEHANKNGFNVIKDFCGHFIGTHMHMYPLIEHHYPNSHNNHRMKKGQIFTIEPILSEGSINIYTWKDKWTVCTNDNSFCSQWEHTILVLDNYAEILT | not soluble
MSKGMFSASQSGFSTIEVYDLGPLNKIDLSIAKAGLEDTGGTVTFSVEQSLLDSLNNADGTSYQLLPPECYTIENATYSVSPGGDRRVTGGSLVYDPHKIYNLCGFDELKYVLPLRVSSTGTPMNSDRTATLYGFIVKEAIVRLASTGGDFVVEGGTTTSPMNLDTEISFENEWDLTTSFATKGADYVDNYNSANSTYYIPLPSDFYTLPDVTIAKGKTTGGSAISLLGETLPPGNYLLPVSLGGLSGQGDASINIDKETVANYFVIKQGGPINRDHWTVTANTEEKTGEVSAAYPHNGQTISLIDGEINTFWHSKWQGGEVAPPYEIILDMGKENSVSQLGLIARQNALTSMNLEIYAGDDGETWNLIGKYFFDGSIKTEQMVPVKACDARWIRIYIPTLGSGSSVGHLAEIYVYGTDKLEHHHHHH | soluble
MGSDKIHHHHHHMQQAIEQTATGGALRFNGICKVFPGVKALSDISFEARPGSVHALMGENGAGKSTLLKILGGSYQPNSGTLQIGEHSYQFKSTAESIAAGVAVIHQELHLVPEMTVAENLLLGHMPNRFGLINRGAMYRRAGELLKGLADEIDPRTRLGDLSLGQRQLVEIAKAMSRNAHVIAFDEPTSSLSAREIDRLMAIIVRLRDEGRVILYVSHRMEEIFRVCDAVTVFKDGRFVKTFEQMADLDHDRLVTCMVGRDIQDIYNYRPRQHQGPSLRVTGLLGLGLQEPVSFAVQKGEVLGFFGLVGAGRTELFRILSGLTRSTAGSLQLDGQPLTLKSPRDAIAAGVLLCPEDRKKEGIVPLSSVAENINIGARPRHVNLGCLIQGGWERDNARAQIKSMNVKTPSPEQQIMFLSGGNQQKAILGRWLSMPMKVLLLDEPTRGIDVGAKSEIYEIIHTLAADGIAVIVVSSDLMEVMGISDRILVMSEGAITGELNRDEADESRLLQLALPRTRG | not soluble
VDLPGNDFDSNDFDAVDLWGADGAEGWTADPIIGVGSAATPDTGPDLDNAHGQAETDTEQEIALFTVTNPPRTVSVSTLMDGRIDHVELSARVAWMSESQLASEILVIADLARQKAQSAQYAFILDRMSQQVDADEHRVALLRKTVGETWGLPSPEEAAAAEAEVFATRYSDDCPAPDDESDPW | soluble
